Source: paper PMC9485241, “Biosynthesis of plant hemostatic dencichine in Escherichia coli” (Nature Communications, 2022)

Experiments:
Test in all cases: purified protein
O=C(O)CC(=O)C(=O)O = settings: 0.18 mM MnCl2, 100 mM Tris-HCl pH 8.0
NC[C@H](N)C(=O)O = settings: oxalyl-CoA made in situ by excess PanE from 1 mM CoA, 1 mM NADP+, 1 mM glyoxylate, 50 mM Tris-HCl pH 7.5, 30 °C
purified protein = substrate: O=CC(=O)O; type: biochemical, Saccharomyces cerevisiae; settings: 2 mM cytochrome c, 100 mM sodium phosphate pH 7.5

## Fpoah (Fomitopsis palustris)
O=C(O)CC(=O)C(=O)O
  Km: 420 µM
  Vmax: 22.8 µM/min/mg

## LsBAHD (Lathyrus sativus)
NC[C@H](N)C(=O)O
  Km: 520 µM
  Vmax: 2.88 µM/min/mg

B1: Scgloxdh (Cyb2p) (Saccharomyces cerevisiae S288C) (protein)
chain: EPKLDMNKQKISPAEVAKHNKPDDCWVVINGYVYDLTRFLPNHPGGQDVIKFNAGKDVTAIFEPLHAPNVIDKYIAPEKKLGPLQGSMPPELVCPPYAPGETKEDIARKEQLKSLLPPLDNIINLYDFEYLASQTLTKQAWAYYSSGANDEVTHRENHNAYHRIFFKPKILVDVRKVDISTDMLGSHVDVPFYVSATALCKLGNPLEGEKDVARGCGQGVTKVPQMISTLASCSPEEIIEAAPSDKQIQWYQLYVNSDRKITDDLVKNVEKLGVKALFVTVDAPSLGQREKDMKLKFSNTKAGPKAMKKTNVEESQGASRALSKFIDPSLTWKDIEELKKKTKLPIVIKGVQRTEDVIKAAEIGVSGVVLSNHGGRQLDFSRAPIEVLAETMPILEQRNLKDKLEVFVDGGVRRGTDVLKALCLGAKGVGLGRPFLYANSCYGRNGVEKAIEILRDEIEMSMRLLGVTSIAELKPDLLDLSTLKARTVGVPNDVLYNEVYEGPTLTEFEDA
Purified protein
  Km: 740 µM
  Vmax: 0.66 µM/min/mg
